Substrate: NC(=O)NO
Assay: purified protein
Conditions: 1 mM NADH, NB5R3, CYB5B, 20 mM MES pH 6.0, 37 °C

B1: mARC1 (Homo sapiens) (protein)
chain: GAAGSSALARFVLLAQSRPGWLGVAALGLTAVALGAVAWRRAWPTRRRRLLQQVGTVAQLWIYPVKSCKGVPVSEAECTAMGLRSGNLRDRFWLVINQEGNMVTARQEPRLVLISLTCDGDTLTLSAAYTKDLLLPIKTPTTNAVHKCRVHGLEIEGRDCGEATAQWITSFLKSQPYRLVHFEPHMRPRRPHQIADLFRPKDQIAYSDTSPFLILSEASLADLNSRLEKKVKATNFRPNIVISGCDVYAEDSWDELLIGDVELKRVMACSRCILTTVDPDTGVMSRKEPLETLKSYRQCDPSERKLYGKSPLFGQYFVLENPGTIKVGDPVYLLGQ
Km: 7 mM

Reference: article PMC11513889
